The target in one experiment is 1C1 BiTE. The experiment in a line: SPR; BiTE analyte, hTEM1-SpyC immobilized. (Surface plasmon resonance follows binding to a sensor surface in real time, without labels.)
The target in experiment [1] is T1, hTEM1-SpyC (human TEM1 extracellular domain fused to SpyCatcher) (UniProt Q9HCU0 18-687, covalently bound to biotinylated SpyTag peptide (bSpyT)).
T1 chain: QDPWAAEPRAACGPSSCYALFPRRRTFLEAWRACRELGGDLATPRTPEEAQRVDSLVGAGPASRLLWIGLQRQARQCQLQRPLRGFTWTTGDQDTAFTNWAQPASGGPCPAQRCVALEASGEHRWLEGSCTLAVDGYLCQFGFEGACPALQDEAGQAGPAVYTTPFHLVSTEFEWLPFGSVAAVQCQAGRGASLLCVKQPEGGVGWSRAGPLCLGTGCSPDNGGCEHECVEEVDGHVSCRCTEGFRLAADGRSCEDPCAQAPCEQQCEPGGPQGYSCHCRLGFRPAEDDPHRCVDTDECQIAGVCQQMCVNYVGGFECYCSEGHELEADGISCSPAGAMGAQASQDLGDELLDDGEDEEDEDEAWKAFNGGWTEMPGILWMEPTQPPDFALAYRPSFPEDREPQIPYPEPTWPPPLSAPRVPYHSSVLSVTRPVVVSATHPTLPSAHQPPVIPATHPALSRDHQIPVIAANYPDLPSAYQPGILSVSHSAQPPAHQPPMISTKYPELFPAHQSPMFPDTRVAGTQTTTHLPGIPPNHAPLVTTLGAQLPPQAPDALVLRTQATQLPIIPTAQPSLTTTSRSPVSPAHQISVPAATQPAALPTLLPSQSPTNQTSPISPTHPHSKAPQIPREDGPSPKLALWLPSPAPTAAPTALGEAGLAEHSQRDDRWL
The experiment in a line: SPR; BiTE analyte, hTEM1-SpyC immobilized.

B1: hTEM1-SpyC (other)
chain: T1 chain
modifications: covalently bound to biotinylated SpyTag peptide (bSpyT)
As for B1, the equilibrium dissociation constant (Kd) (as a rule, a measure of binding affinity in units of concentration) with 1C1 BiTE is roughly 68 nM.

B2: 1C1mut BiTE (1C1mut scFv fused to an scFv derived from anti-CD3 clone UCHT1) (bispecific antibody, V domains shown)
VH: QVQLVQSGAEVKKPGSSVKVSCKASGGTFSSYAISWVRQAPGQGLEWMGGIIPIFGTANYAQKFQGRVTITADKSTSTAYMELSSLRSEDTAVYYCASLISYYGDPTGFDYWGQGTLVTVSS
VL: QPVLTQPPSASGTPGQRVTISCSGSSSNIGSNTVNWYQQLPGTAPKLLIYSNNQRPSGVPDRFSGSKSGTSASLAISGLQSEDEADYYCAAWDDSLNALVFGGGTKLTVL
B2 gave a dissociation constant Kd in experiment [1] of roughly 1 nM.

Values taken from patent US20220227872A1 (published 2022).
